Our source for the Fold change values is US20200277377A1 (WUXI BIOLOGICS SHANGHAI, published 2020).

Assay in all cases: capture ELISA, alanine scan, vs silent alanine substitutions
A general note: An ELISA detects its analyte on a solid surface through an enzyme-linked reagent.

The target of test [1] is T1, hCTLA4_ECD.His point mutant E83 to alanine (human, UniProt P16410 36-161).
T1 construct: extracellular domain; alanine-scan mutein, HEK293F supernatant
T1 sequence (looked up): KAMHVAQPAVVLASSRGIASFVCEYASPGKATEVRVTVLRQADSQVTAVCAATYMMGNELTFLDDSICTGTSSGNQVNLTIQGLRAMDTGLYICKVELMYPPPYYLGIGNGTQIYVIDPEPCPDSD
How it is done: (§1) In order to test how the mutations affect antibody-binding, a capture ELISA was conducted. […] After interacting with the supernatant that contains quantified CTLA4 muteins, HRP conjugated anti-His antibody (1:5000; Rockland Immunochemicals, Pottstown, Pa.) was added as detection antibody. TMB was used as substance of HRP. Absorbance was normalized according to the average of control mutants. After setting an additional cutoff to the binding fold change (<0.55), the final determined epitope residues were identified.

In test [2] the target is T2, hCTLA4_ECD.His point mutant V71 to alanine (human, UniProt P16410 36-161).
T2 construct: extracellular domain; alanine-scan mutein, HEK293F supernatant
T2 sequence (looked up): T1 sequence (looked up) with V36A, A48E
The method, then:
as §1

Test [3] has as its target T3, hCTLA4_ECD.His point mutant V40 to alanine (human, UniProt P16410 36-161).
T3 construct: extracellular domain; alanine-scan mutein, HEK293F supernatant
T3 sequence (looked up): T1 sequence (looked up) with V5A, A48E
How it is done:
as §1

Test [4] addresses T4, hCTLA4_ECD.His point mutant I149 to alanine (human, UniProt P16410 36-161).
T4 construct: extracellular domain; alanine-scan mutein, HEK293F supernatant
T4 sequence (looked up): T1 sequence (looked up) with A48E, I114A
The method, then: as §1

Test [5] has as its target T5, hCTLA4_ECD.His point mutant A66 to glycine (human, UniProt P16410 36-161).
T5 construct: extracellular domain; alanine-scan mutein (alanine residues were mutated to glycine), HEK293F supernatant
T5 sequence (looked up): T1 sequence (looked up) with A31G, A48E
How it is done: as §1

Test [6] addresses T6, hCTLA4_ECD.His point mutant C85 to alanine (human, UniProt P16410 36-161).
T6 construct: extracellular domain; alanine-scan mutein, HEK293F supernatant
T6 sequence (looked up): T1 sequence (looked up) with A48E, C50A
How it is done:
as §1

Test [7] addresses T7, hCTLA4_ECD.His point mutant P137 to alanine (human, UniProt P16410 36-161).
T7 construct: extracellular domain; alanine-scan mutein, HEK293F supernatant
T7 sequence (looked up): T1 sequence (looked up) with A48E, P102A
How it is done: as §1

The target in test [8] is T8, hCTLA4_ECD.His point mutant G146 to alanine (human, UniProt P16410 36-161).
T8 construct: extracellular domain; alanine-scan mutein, HEK293F supernatant
T8 sequence (looked up): T1 sequence (looked up) with A48E, G111A
The method, then:
as §1

In test [9] the target is T9, hCTLA4_ECD.His point mutant L74 to alanine (human, UniProt P16410 36-161).
T9 construct: extracellular domain; alanine-scan mutein, HEK293F supernatant
T9 sequence (looked up): T1 sequence (looked up) with L39A, A48E
The method, then: as §1

The target in test [10] is T10, hCTLA4_ECD.His point mutant T88 to alanine (human, UniProt P16410 36-161).
T10 construct: extracellular domain; alanine-scan mutein, HEK293F supernatant
T10 sequence (looked up): T1 sequence (looked up) with A48E, T53A
The method, then:
as §1

In test [11] the target is T11, hCTLA4_ECD.His point mutant V84 to alanine (human, UniProt P16410 36-161).
T11 construct: extracellular domain; alanine-scan mutein, HEK293F supernatant
T11 sequence (looked up): T1 sequence (looked up) with A48E, V49A
The method, then: as §1

Test [12] deals with T12, hCTLA4_ECD.His point mutant P138 to alanine (human, UniProt P16410 36-161).
T12 construct: extracellular domain; alanine-scan mutein, HEK293F supernatant
T12 sequence (looked up): T1 sequence (looked up) with A48E, P103A
How it is done: as §1

Test [13] concerns the target T13, hCTLA4_ECD.His point mutant M38 to alanine (human, UniProt P16410 36-161).
T13 construct: extracellular domain; alanine-scan mutein, HEK293F supernatant
T13 sequence (looked up): T1 sequence (looked up) with M3A, A48E
The method, then:
as §1

Numbering of substitutions follows the chain as printed.

B1: W3162_1.154.8-z35-uAb.IgG1K (antibody, V domains shown)
VH: QVQLVQSGAEVKKPGSSVKVSCKASGYTFTNYFMNWVRQAPGQGLEWMGRVDPEQGRADYAEKFKKRVTITADKSTSTAYMELSSLRSEDTAVYYCARRAMDNYGFAYWGQGTLVTVSS
VL: EIVLTQSPDFQSVTPKEKVTITCSANSALSYMYWYQQKPDQSPKLWVHGTSNLASGVPSRFSGSGSGTDFTLTINSLEAEDAATYYCHHWSNTQWTFGGGTKVEIK
notes: Humanized; label says IgG1K
B1: the Fold change in test [1] was 0.479 fold; in test [2] it was 0.347 fold; in test [3] it was 0.187 fold; in test [4], 0.319 fold; in test [5], 0.519 fold; in test [6] it was 0.218 fold. For the same molecule, the Fold change in [7] was 0.534 fold; in [8], 0.201 fold; in test [9], 0.52 fold; in test [10], 0.433 fold; in test [11], 0.232 fold; in test [12], 0.339 fold. This molecule also yielded a Fold change in [13] of 0.238 fold.

B2: W3162-1.146.19-z12-uAb.IgG1K (antibody, V domains shown)
VH: QVQLQESGPGLVKPSETLSLTCSVTYHTITSGYDWTWIRKPPGKGMEWIGYISYSGNTNYNPSLKSRVTISRDTSKNQFFLKLSSVTAADTAVYYCASMMVPHYYVMDAWGQGTLVTVSS
VL: DIVMTQTPLSLSVTPGQPASISCRSSQSLLNSDGNTYLYWYLQKPGQSPQLLIYLVSKLGSGVPNRFSGSGSGTDFTLKISRVEAEDVGVYYCVQGTHDPWTFGGGTKVEIK
notes: Humanized; label says IgG1K
As to B2, the Fold change turned out to be 0.405 fold in test [1]; 0.343 fold in test [2]; 0.181 fold in [3]; 0.183 fold in test [4]; 0.395 fold in test [5]; 0.256 fold in test [6]. For the same molecule, the Fold change is 0.425 fold in test [7]; 0.166 fold in test [8]; 0.398 fold in test [9]; 0.423 fold in test [10]; 0.201 fold in [11]; 0.445 fold in test [12]. In test [13], this molecule displayed a Fold change of 0.182 fold.
